Earlier results in paper PMC6757120.

Molecular target: VEGF-A165 (Homo sapiens) (UniProt P15692)
Sequence of UniProt P15692 (P15692 whole entry): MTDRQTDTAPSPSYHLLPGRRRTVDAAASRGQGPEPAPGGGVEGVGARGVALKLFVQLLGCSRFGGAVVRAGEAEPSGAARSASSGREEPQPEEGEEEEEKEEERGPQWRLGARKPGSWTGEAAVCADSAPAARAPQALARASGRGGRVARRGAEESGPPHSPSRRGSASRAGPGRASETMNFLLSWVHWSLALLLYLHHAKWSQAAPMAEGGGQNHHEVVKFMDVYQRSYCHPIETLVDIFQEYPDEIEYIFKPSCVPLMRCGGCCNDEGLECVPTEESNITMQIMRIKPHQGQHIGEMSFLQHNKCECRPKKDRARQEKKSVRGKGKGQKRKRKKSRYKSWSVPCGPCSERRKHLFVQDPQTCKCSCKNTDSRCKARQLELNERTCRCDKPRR

Which Kd does the source give for NRP1 (from UniProt O14786) here?
Its Kd is 3 nM.
